According to PMC5821459:

Biological target: L1 ORF2p-3xFLAG (ORFeus-Hs, pLD401, WT) (human) (UniProt O00370)
Test: affinity purification with mass spectrometry; On-bead RNase-sensitivity assay: ORF2p-3xFLAG (pLD401) captured on α-FLAG magnetic medium from HEK-293T_LD extract in 20 mM HEPES-Na pH 7.4, 500 mM NaCl, 1% Triton X-100; medium treated with RNases A and T1 or with BSA, 30 min RT; retained material eluted with LDS; label-swapped SILAC

Chain of UniProt O00370 (O00370 whole entry): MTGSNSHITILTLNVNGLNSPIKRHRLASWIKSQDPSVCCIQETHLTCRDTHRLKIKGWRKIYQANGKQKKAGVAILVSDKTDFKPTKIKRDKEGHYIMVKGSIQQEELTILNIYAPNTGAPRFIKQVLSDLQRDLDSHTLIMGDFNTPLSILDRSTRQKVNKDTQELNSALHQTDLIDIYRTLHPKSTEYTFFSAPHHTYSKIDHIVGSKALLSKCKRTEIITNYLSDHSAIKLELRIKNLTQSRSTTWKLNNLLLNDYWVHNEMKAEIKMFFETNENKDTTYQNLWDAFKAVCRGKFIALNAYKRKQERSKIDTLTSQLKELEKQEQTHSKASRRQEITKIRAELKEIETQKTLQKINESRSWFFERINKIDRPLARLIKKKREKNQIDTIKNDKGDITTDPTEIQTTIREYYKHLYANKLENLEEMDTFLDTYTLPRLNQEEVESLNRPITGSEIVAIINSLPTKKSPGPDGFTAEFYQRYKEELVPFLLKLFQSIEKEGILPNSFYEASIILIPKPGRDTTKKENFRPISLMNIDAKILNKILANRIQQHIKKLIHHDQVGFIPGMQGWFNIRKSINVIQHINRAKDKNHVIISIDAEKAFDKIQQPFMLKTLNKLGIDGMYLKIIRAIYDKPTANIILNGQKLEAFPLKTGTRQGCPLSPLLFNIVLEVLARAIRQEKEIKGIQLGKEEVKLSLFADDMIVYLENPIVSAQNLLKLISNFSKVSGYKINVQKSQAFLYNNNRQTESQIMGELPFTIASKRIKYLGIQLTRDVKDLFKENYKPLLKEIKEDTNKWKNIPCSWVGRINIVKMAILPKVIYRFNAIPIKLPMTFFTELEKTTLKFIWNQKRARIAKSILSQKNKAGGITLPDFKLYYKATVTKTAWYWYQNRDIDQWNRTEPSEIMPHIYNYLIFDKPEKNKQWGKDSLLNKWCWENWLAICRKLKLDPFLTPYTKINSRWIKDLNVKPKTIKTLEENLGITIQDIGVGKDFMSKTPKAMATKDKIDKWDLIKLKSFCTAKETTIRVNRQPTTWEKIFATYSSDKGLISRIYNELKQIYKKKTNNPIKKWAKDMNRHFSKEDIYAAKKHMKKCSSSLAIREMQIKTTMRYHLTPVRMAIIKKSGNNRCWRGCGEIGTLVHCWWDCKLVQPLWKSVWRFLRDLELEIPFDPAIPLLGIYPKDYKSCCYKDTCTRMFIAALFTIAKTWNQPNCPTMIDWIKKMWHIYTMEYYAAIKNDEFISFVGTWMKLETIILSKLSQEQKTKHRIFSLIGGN

In the case of “Regulator of nonsense transcripts 1 (from UniProt Q92900 1-1129) (natural protein)”, the RNase sensitivity relative to that of MOV10 is reported as 62%.
